Data as given in US8809287B2, “Compositions and methods for altering Wnt autocrine signaling” (Icahn School of Medicine at Mount Sinai, priority 2004, dated 2014).

B1: FRP1: human secreted Frizzled Related Protein 1, Wnt antagonist; expressed from pBabe-derived retrovirus with carboxy-terminal HA tag (protein, UniProt Q8N474 32-314, looked up)
Secreted frizzled-related …: SEYDYVSFQSDIGPYQSGRFYTKPPQCVDIPADLRLCHNVGYKKMVLPNLLEHETMAEVKQQASSWVPLLNKNCHAGTQVFLCSLFAPVCLDRPIYPCRWLCEAVRDSCEPVMQFFGFYWPEMLKCDKFPEGDVCIAMTPPNATEASKPQGTTVCPPCDNELKSEAIIEHLCASEFALRMKIKEVKKENGDKKIVPKKKKPLKLGPIKKKDLKKLVLYLKNGADCPCHQLDNLSHHFLIMGRKVKSQYLLTAIHKWDKKNKEFKNFMKKMKNHECPTFQSVFK
modifications: C-terminal HA tag
notes: human secreted Frizzled Related Protein 1, Wnt antagonist; expressed from pBabe-derived retrovirus with carboxy-terminal HA tag
B2: DKK1: Dickkopf-1, secreted Wnt antagonist protein that binds Wnt co-receptor LRP6; used purified, in conditioned media or retrovirally expressed with HA tag (protein, UniProt O94907 32-266, looked up)
Dickkopf-related protein 1: TLNSVLNSNAIKNLPPPLGGAAGHPGSAVSAAPGILYPGGNKYQTIDNYQPYPCAEDEECGTDEYCASPTRGGDAGVQICLACRKRRKRCMRHAMCCPGNYCKNGICVSSDQNHFRGEIEETITESFGNDHSTLDGYSRRTTLSSKMYHTKGQEGSVCLRSSDCASGLCCARHFWSKICKPVLKEGQVCTKHRRKGSHGLEIFQRCYCGEGLSCRIQKDHHQASNSSRLHTCQRH
modifications: HA tag in some uses

Legend:
[1] = tested on: HCT116 cell lines; assay: Tumorigenicity of HCT116 cell lines injected subcutaneously in nude mice; type: in vivo
Experimental: To assess the effects of Wnt autocrine inhibition in vivo, tumorigenicity experiments were performed utilizing parental or β-catenin wild type allele containing HCT116 cell lines, in which stable marker selected mass cultures expressing FRP1 were obtained. Parental and wild type β-catenin allele containing HCT116 cells were transfected with either vector control or FRP1. Marker selected mass cultures of each were subcutaneously injected in 6 week old nude mice at 2.5×10^6 cells per site. Tumor growth was monitored at weekly intervals as previously described (Pierce et al. (1991) Oncogene 6:1189-1194). Values in FIG. 7F represent the mean (± standard deviation) of 4 inoculation cites per cell line. […] All of these findings establish that autocrine Wnt signaling can be present in human colon carcinoma cells that harbor downstream lesions within the canonical pathway.

[2] = tested on: uncomplexed β-catenin; assay: Uncomplexed β-catenin in MDAMB231 breast tumor cells; type: cell-based, human; settings: FRP1-HA retrovirus
Experimental: (§1) β-catenin levels were assessed using the GST-E-cadherin binding assay, which has been previously described (Bafico et al., (1998) Oncogene 16:2819-2825). Briefly, bacterially expressed GST-E-cadherin was purified with glutathione-Sepharose beads and incubated with 1 mg of each cell lysate. The GST-E-cadherin/[…]-catenin complex bound to the beads was recovered by centrifugation and analyzed by SDS-PAGE followed by immunoblotting. The uncomplexed β-catenin was detected using a monoclonal antibody to β-catenin (Transduction Laboratories). Unphosphorylated β-catenin was detected with a monoclonal antibody specific for β-catenin dephosphorylated at residues 27-37 (Alexis, Läufelfingen, Switzerland). FRP1-HA and DKK1-HA were detected with an anti-HA monoclonal antibody (Hybridoma Center, Mount Sinai School of Medicine, New York).
(§2) Breast (MDAMB231, ATCC No. HTB-26) and ovarian A1847 tumor cell lines were infected with vector alone or FRP 1-HA (described in Example 1) retroviruses and marker selected. […] Breast (MDAMB231) and ovarian A1847 tumor cell lines were analyzed for uncomplexed β-catenin and FRP 1-HA by immunoblot analysis with either an anti-β-catenin antibody (Transduction Laboratories) or an anti-HA antibody (Hybridoma Center, Mount Sinai School of Medicine, New York). […]

[3] = tested on: uncomplexed β-catenin; assay: Uncomplexed β-catenin in PAI ovarian tumor cells; type: cell-based, human; settings: DKK1-HA retrovirus
Experimental: as §1, §2

[4] = tested on: TCF dependent transcription; assay: TOP-Glow/FOP-Glow TCF reporter assay in PAI tumor cells; type: cell-based, human; settings: PAI ovarian tumor cells, 48 hours
Experimental: Wnt signaling activates TCF dependent transcription, which can be monitored by reporters containing TCF responsive elements (Morin et al., (1997) Science 275:1787-1790). TCF responsive elements operably linked to a reporter (TOP-Glow, wild type, or FOP-Glow, mutant) were analyzed for transcriptional activity in PAI tumor cells in the presence or absence of DKK1. Ovarian tumor PAI cells plated at 3×10^5 per well in 6-well plates were co-transfected with 1 μg of either the TOP-glow or FOP-glow plasmids (Upstate Biotechnology, Waltham, Mass.) and 0.001 μg of the Renilla control plasmid (pRL-CMV) utilizing Fugene (Roche) according to the manufacturer's instructions. After 48 hours cells were lysed and analyzed utilizing the Dual Luciferase Reporter Assay system (Promega, Madison, Wis.). […] These findings further established that TCF dependent transcription was constitutively activated in these tumor cells by an autocrine Wnt mechanism.

Molecule	tumor growth ([1]; parental HCT116 cells expressing FRP1, subcutaneous in nude mice)	tumor forming ability ([1]; β-catenin wild type allele containing HCT116 cells expressing FRP1, subcutaneous in nude mice)	constitutively up-regulated β-catenin [2]	constitutively up-regulated β-catenin [3]	level of endogenous TCF dependent signaling [4]
B1	no effect	striking reduction	inhibition of constitutively up-regulated β-catenin		
B2				inhibition of constitutively up-regulated β-catenin	striking reduction
